Measurements: PMC5339670 (The Journal of Experimental Medicine, 2017)

Biological target: T1, Recombinant His-tagged WASp (mouse, UniProt P70315 1-520)
T1 sequence (looked up): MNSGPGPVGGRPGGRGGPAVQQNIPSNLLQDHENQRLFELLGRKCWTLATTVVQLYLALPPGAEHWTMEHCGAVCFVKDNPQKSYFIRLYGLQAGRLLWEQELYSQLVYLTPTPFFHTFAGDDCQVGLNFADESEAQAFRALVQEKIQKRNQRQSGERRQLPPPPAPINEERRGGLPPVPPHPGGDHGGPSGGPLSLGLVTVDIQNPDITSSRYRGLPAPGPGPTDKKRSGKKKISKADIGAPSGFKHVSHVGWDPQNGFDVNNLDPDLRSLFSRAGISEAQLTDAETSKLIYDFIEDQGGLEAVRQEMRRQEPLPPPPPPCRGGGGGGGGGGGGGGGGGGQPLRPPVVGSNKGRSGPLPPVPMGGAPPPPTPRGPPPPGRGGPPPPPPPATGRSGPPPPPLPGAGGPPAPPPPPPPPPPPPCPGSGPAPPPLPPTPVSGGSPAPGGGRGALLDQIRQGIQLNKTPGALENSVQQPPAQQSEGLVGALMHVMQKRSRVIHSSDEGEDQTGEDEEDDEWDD
Test: pull-down

binding result: binds
B1: GST fusion protein of the Skap2 SH3 domain (domain or fragment, mouse, UniProt Q3UND0 296-357, looked up)
chain: DYANFYQGLWDCTGALSDELSFKRGDVIYILSKEYNRYGWWVGEMKGAIGLVPKAYLMEMYD
